According to patent US20160083465A1 (AVEO PHARMACEUTICALS, published 2016):

T1: mouse IgG1 Fc-mature human GDF15 fusion protein (mFc-rhGDF15) (mouse; human)
T1 construct: Made in CHOK1SV cells, purified by Protein A and size exclusion; also called mouse Fc fused to human GDF15
T1 chain: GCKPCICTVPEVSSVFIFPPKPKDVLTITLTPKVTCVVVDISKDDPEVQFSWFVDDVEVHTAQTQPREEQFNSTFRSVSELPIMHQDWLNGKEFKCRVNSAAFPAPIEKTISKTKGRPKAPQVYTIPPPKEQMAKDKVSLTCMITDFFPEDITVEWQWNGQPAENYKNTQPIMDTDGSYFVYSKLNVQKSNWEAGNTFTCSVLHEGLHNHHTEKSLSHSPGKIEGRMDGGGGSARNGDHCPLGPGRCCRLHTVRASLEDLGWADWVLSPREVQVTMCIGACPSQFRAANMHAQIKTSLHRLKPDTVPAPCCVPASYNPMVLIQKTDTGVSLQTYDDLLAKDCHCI


Legend:
[1] = target: T1, mouse IgG1 Fc-mature human GDF15 fusion …; assay: BLI Octet QK, 30 C, antibody from supernatant on anti-human Fc sensor, 400 nM mFc-rhGDF15
Experimental: The Octet analysis was performed at 30° C. using 1× Kinetics Buffer (ForteBio, Inc.) as assay buffer. Anti-human IgG Fc Capture (AHC) biosensors (ForteBio, Inc.) were used to capture human antibodies onto the sensors. Sensors were saturated in assay buffer for at 300 seconds before the assay. […] Baseline was established by dipping the sensors into 1× assay buffer for 200 seconds. Next, association was monitored for 220 seconds in 400 nM mFc-rhGDF15 protein, and dissociation was followed for 600 seconds in buffer alone.
Kinetic parameters of the antibody, kₐ, kd, and KD were determined.

[2] = target: T1, mouse IgG1 Fc-mature human GDF15 fusion …; assay: SPR Biacore T100, 37 C, purified antibody captured by anti-human IgG Fc, antigen in solution
Experimental: Goat anti-human IgGs (Fc fragment specific, Jackson ImmunoResearch, West Grove, Pa.) were immobilized on carboxymethylated dextran CM4 sensor chips by amine coupling, according to a standard protocol. Analyses were performed at 37° C. using PBS containing 0.05% surfactant P20 as running buffer. The antibodies were captured in individual flow cells at a flow rate of 10 μL/minute. Injection time was varied for each antibody to yield an Rmax between 30 and 60 RU. […] The dissociation phase was monitored for up to 1200 seconds. The surface was then regenerated with two 60-second injections of 10 mM Glycine-HCl, pH 2.25, at a flow rate of 30 μL/minute.
Kinetic parameters were determined using the kinetic function of the BIAevaluation software (GE Healthcare) with double reference subtraction.

Kd [1] [nM] | koff [1] [s⁻¹] | kon [1] [M⁻¹ s⁻¹] | Kd [2] [nM] | koff [2] [s⁻¹] | kon [2] [M⁻¹ s⁻¹] | Binder
0.032 | 1.9e-05 | 630000 | 0.16 | 0.00046 | 3e+06 | Hu14F11-1 (antibody, human IgG1, kappa, Mouse variable regions, human IgG1 and kappa constant regions; also called Chimeric 14F11) heavy: not shown light: DIVMTQSQKFMSTSVGDRVSVTCKASQNVGTNVAWYQQKPGQSPKALIYSPSYRYSGVPDRFTGSGSGTDFTLTISNVQSEDLAEYFCQQYNSYPHTFGGGTKLEMKRTVAAPSVFIFPPSDEQLKSGTASVVCLLNNFYPREAKVQWKVDNALQSGNSQESVTEQDSKDSTYSLSSTLTLSKADYEKHKVYACEVTHQGLSSPVTKSFNRGEC
0.18 | 6.2e-05 | 340000 | – | – | – | Hu14F11-23 (antibody, human IgG1, kappa, Chimeric 06C11 heavy chain with chimeric 14F11 light chain, human IgG1 kappa; tested in supernatant; also called chimeric light 14F11 with chimeric heavy 06C11) heavy: not shown light: DIVMTQSQKFMSTSVGDRVSVTCKASQNVGTNVAWYQQKPGQSPKALIYSPSYRYSGVPDRFTGSGSGTDFTLTISNVQSEDLAEYFCQQYNSYPHTFGGGTKLEMKRTVAAPSVFIFPPSDEQLKSGTASVVCLLNNFYPREAKVQWKVDNALQSGNSQESVTEQDSKDSTYSLSSTLTLSKADYEKHKVYACEVTHQGLSSPVTKSFNRGEC
0.31 | 0.00022 | 710000 | – | – | – | Hu14F11-24 (antibody, human IgG1, kappa, Chimeric 14F11 heavy chain with chimeric 06C11 light chain, human IgG1 kappa; tested in supernatant; also called chimeric light 06C11 with chimeric heavy 14F11) heavy: not shown light: DIVMTQSQKFMSTSVGDRVSVTCKASQNVGTNVAWFQQKPGQSPKALIYSASYRYSGVPDRFTGSGSGTDFILTISNVQSEDLAEYFCQQYNNYPLTFGAGTKLELKRTVAAPSVFIFPPSDEQLKSGTASVVCLLNNFYPREAKVQWKVDNALQSGNSQESVTEQDSKDSTYSLSSTLTLSKADYEKHKVYACEVTHQGLSSPVTKSFNRGEC
